T1: binding of Shc 1-209 to the EGF receptor (Mus musculus, UniProt P98083)
T1 construct: we generated Shc 1-209 as a GST fusion protein; made in house; host or cells: bacteria (pGSTag vector)
T1 sequence (P98083 111-319): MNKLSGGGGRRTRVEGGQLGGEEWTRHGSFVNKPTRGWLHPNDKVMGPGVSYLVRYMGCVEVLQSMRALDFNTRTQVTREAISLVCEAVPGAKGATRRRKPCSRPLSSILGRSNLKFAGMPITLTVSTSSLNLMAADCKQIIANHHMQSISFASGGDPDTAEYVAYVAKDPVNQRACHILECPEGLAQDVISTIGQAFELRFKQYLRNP


Columns and labels:
[1] = molecular target: T2, binding of the Grb7 SH2 domain to EGF receptor (Mus musculus, UniProt Q03160); experiment: Phosphotyrosine inhibition of Grb7 SH2 domain binding to EGF receptor; conditions: 30 mM phosphotyrosine; results not shown
T2 construct: made in house; host or cells: bacteria
T2 sequence (Q03160 434-530 limits assumed): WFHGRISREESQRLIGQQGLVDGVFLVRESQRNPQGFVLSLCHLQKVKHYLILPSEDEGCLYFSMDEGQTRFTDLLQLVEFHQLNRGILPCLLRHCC
Text: (§1) Accordingly we examined the binding of the Shc amino terminus (hereafter referred to as Shc 1-209) in further detail. First we determined if the binding of Shc 1-209 was dependent on EGF receptor activation. To perform these studies we generated Shc 1-209 as a GST fusion protein and examined its ability to bind EGF receptor from lysates of NIH 3T3 cells. […] We asked if this binding was dependent on receptor autophosphorylation. EGF receptor was immunoprecipitated from unstimulated cells and then tyrosine-phosphorylated in vitro by adding Mn^2+ and ATP. […] To confirm that the binding was dependent on autophosphorylation, we examined the binding of Shc 1-209 to EGF receptor mutants lacking autophosphorylation sites. […] This may represent a difference in the affinity of interactions or a basic difference in the molecular mechanism of EGF receptor interaction with Shc 1-209 versus SH2 domains.

[2] = molecular target: T1, binding of Shc 1-209 to the EGF receptor; experiment: Phosphotyrosine inhibition of Shc 1-209 binding to EGF receptor; conditions: 30 mM phosphotyrosine; results not shown
Text: as §1

[3] = test system: HER2/neu (HER1/2 chimera); experiment: Binding of GST-Shc fusion proteins to HER1/2 chimera from NIH 3T3 lysates, anti-phosphotyrosine blot; conditions: EGF-stimulated NIH 3T3 lysates
Protocol: FIGS. 4A, 4B, 4C and 4D. Binding of Shc fragments to growth factor receptors. A, schematic diagram illustrating the Shc fragments used in binding studies. Full length murine p52^shc is indicated in (i) while (ii)-(vi) were generated as GST fusion proteins for use in receptor binding studies. B, association of various GST fusion proteins with activated EGF receptor (EGFR). Binding was performed as in FIG. 2A with the exception that all lysates were stimulated with EGF. All studies used 3 μg of fusion proteins except for the Shc SH2 where 10 μg was used. Immunoblotting was performed with anti-phosphotyrosine. C, binding of Shc fusion proteins to NIH 3T3 cells expressing a HER1/2 chimera. This chimera consists of the EGF receptor extracellular binding domain and the intracellular region of HER2/neu. After stimulation of these cells with EGF (200 ng/ml) lysates were prepared and binding as well as blotting studies were performed as in B using anti-phosphotyrosine antibody. D, binding of Shc 1-209 to TrkA. Beads containing 10 μg of GST fusion proteins Shc 1-209, phospholipase C-γ (PLC-γ) SH2 (contains both N and C SH2 domains), or GST alone were added to lysates from 2×10^7 PC12 cells stimulated with 50 ng/ml nerve growth factor (lanes 1, 2, and 4). The binding of the same amount of lysate to 2 μg of anti-TrkA antibody is shown as a positive control and to indicate the position of TrkA on the blot (lane 3). Otherwise, the binding and blotting were performed as in B using anti-phosphotyrosine antibody. […] Protein concentration was determined by SDS-PAGE (polyacrylamide gel electrophoresis) using bovine serum albumin as a standard. […]

EGF receptor = molecular target: T3, EGF receptor (Homo sapiens, UniProt P00533); experiment: Binding of GST fusion proteins on glutathione-agarose beads to EGF receptor from HER14 cell lysates, immunoblot; conditions: GST fusion protein, lysates of EGF-stimulated or unstimulated cells
T3 construct: expressed in transfected cells; host or cells: HER14 (NIH 3T3 cells expressing human EGF receptor)
Protocol: FIGS. 2A and 2B. Association of GST-Shc 1-209 with the EGF Receptor (EGFR). A, HER14 lysates from either EGF-stimulated (+) or unstimulated (−) cells (5×10^6 cells) were incubated with 3 μg of GST fusion protein immobilized on glutathione-agarose beads. The bound proteins were washed, subjected to SDS-PAGE, transferred to nitrocellulose and immunoblotted with anti-EGF receptor antibody, anti-C (anti-EGFR). HER14 lysate (4×10^5 cells) was run directly on the gel in lanes 5 and 6. B, unstimulated HER14 lysates (5×10^6 cells) were immunoprecipitated with anti-EGFR antibody (mAb 108). The immobilized receptor was then phosphorylated (+) by the addition of 5 mM MnCl2 and 50 μM ATP or left unphosphorylated (−) by adding MnCl2 alone. Bacterial lysates containing 5 μg of GST, GST-Grb7, and GST-Shc 1-209 were then diluted in 1 ml of 1% Triton X-100 lysis buffer, added to the immobilized receptor and incubated at 4° C. for 90 min. The bound proteins were washed and together with 40 μl of the post-binding supernatant separated by SDS-PAGE and transferred to nitrocellulose. The bound fractions (left panel) and supernatants (right panel) were immunoblotted with anti-GST. FIGS. 4A, 4B, 4C and 4D. Binding of Shc fragments to growth factor receptors. A, schematic diagram illustrating the Shc fragments used in binding studies. Full length murine p52^shc is indicated in (i) while (ii)-(vi) were generated as GST fusion proteins for use in receptor binding studies. B, association of various GST fusion proteins with activated EGF receptor (EGFR). Binding was performed as in FIG. 2A with the exception that all lysates were stimulated with EGF. All studies used 3 μg of fusion proteins except for the Shc SH2 where 10 μg was used. Immunoblotting was performed with anti-phosphotyrosine. C, binding of Shc fusion proteins to NIH 3T3 cells expressing a HER1/2 chimera. This chimera consists of the EGF receptor extracellular binding domain and the intracellular region of HER2/neu. After stimulation of these cells with EGF (200 ng/ml) lysates were prepared and binding as well as blotting studies were performed as in B using anti-phosphotyrosine antibody. D, binding of Shc 1-209 to TrkA. Beads containing 10 μg of GST fusion proteins Shc 1-209, phospholipase C-γ (PLC-γ) SH2 (contains both N and C SH2 domains), or GST alone were added to lysates from 2×10^7 PC12 cells stimulated with 50 ng/ml nerve growth factor (lanes 1, 2, and 4). The binding of the same amount of lysate to 2 μg of anti-TrkA antibody is shown as a positive control and to indicate the position of TrkA on the blot (lane 3). Otherwise, the binding and blotting were performed as in B using anti-phosphotyrosine antibody. […]

Row | Molecule | inhibition of binding of the Grb7 SH2 domain to the EGF receptor [1] | inhibition of binding of Shc 1-209 to the EGF receptor [2] | binding to HER2/neu [3] | binding to EGF receptor (EGF receptor)
1 | N[C@@H](Cc1ccc(OP(=O)(O)O)cc1)C(=O)O [phosphotyrosine] | completely inhibited | partially inhibit |  | 
2 | Shc 46-209: amino acids encoding the amino terminus of p46Shc, GST fusion protein (protein, UniProt P98083 46-209, looked up, fragment, GST fusion, amino acids encoding the amino terminus of p46Shc, GST fusion protein) LPPLPGDDSPTTLCSFFPRMSNLKLANPAGGRLGPKGEPGKAAEDGEGSAGAALRDSGLLPLLQDMNKLSGGGGRRTRVEGGQLGGEEWTRHGSFVNKPTRGWLHPNDKVMGPGVSYLVRYMGCVEVLQSMRALDFNTRTQVTREAISLVCEAVPGAKGATRRR |  |  | can bind both EGF receptor and HER2/neu receptor | can bind both EGF receptor and HER2/neu receptor
3 | Shc 85-209: Shc construct with a more severe amino-terminal deletion, GST fusion protein (protein, UniProt P98083 85-209, looked up, fragment, GST fusion, Shc construct with a more severe amino-terminal deletion, GST fusion protein) GKAAEDGEGSAGAALRDSGLLPLLQDMNKLSGGGGRRTRVEGGQLGGEEWTRHGSFVNKPTRGWLHPNDKVMGPGVSYLVRYMGCVEVLQSMRALDFNTRTQVTREAISLVCEAVPGAKGATRRR |  |  | did not bind growth factor receptors | did not bind growth factor receptors
